Reference: US20110093959A1, “CRYPTOTIS PARVA SCREENING MODEL FOR ANTIEMETIC POTENTIAL” (priority 2008, published 2011)

Legend:
[1] = Analysis of SP in serum, gut and brain tissues following intraperitoneal injection of an emetic dose of SP; type: in vivo, Cryptotis parva; conditions: SP 50 mg/kg i.p.
Experimental: Different groups of shrews were injected with a 50 mg/kg emetic dose of SP (i.p.) and were sacrificed at 5 min, 15 min, and 30 min (n=5-6 animals per group) post injection. Blood serum as well as two different brain (frontal cortex and brain stem) and gut (duodenum and jejunum) tissue samples were collected for the determination of SP levels relative to a saline-treated shrew control group (n=6). The brain SP concentration was determined in all of the cited exposure times, whereas gut SP tissue levels were analyzed for the 0 min (control), 5 min and 15 min exposure periods Likewise, serum SP concentrations were determined at the 0 min, 5 min and 15 min exposure periods as well as in a 10 min SP-exposed shrew group.
To collect blood, shrews were rapidly euthanized with isoflurane (Vedco, St. Joseph, Mo.) one at a time. Then, each shrew was laid on its back and taped to a metal tray, and cut transversely under the diaphragm and along the sides towards the arms to allow the ribcage to be lifted away. The heart was then held with forceps, and a 0.5 cc syringe with 28 ga hypodermic needle was inserted into the left ventricle. Blood was pulled gently into the syringe directly from the ventricle until the descending aorta appeared clear (approximately 50 μl -100 μl total volume), and rapidly transferred to a non-heparinized tube for centrifugation and removal of red blood cells. Brain and gut tissue were rapidly dissected following blood collection and decapitation. Preliminary sample preparation procedures were carried out to optimize detection conditions.
Because proteases can be deactivated by heat (El-Salhy, 107 Upsala J. Med. Sci. 101-10 (2002)), at basic pH (Crawford & Kalmakoff, 24 J. Virol. 412-15 (1977)), and in the presence of EDTA (Wei & Bobek, 49 Antimicrob. Agents Chemother. 2336-42 (2005)), the entire intestine was immediately immersed in a 70° C. preheated, 5 ml solution of normal saline containing […] EDTA at pH8.0. After a 5 min exposure, each gut was thrice flushed and rinsed with 5 ml of the saline solution and then allowed to cool down naturally to room temperature. Then, each gut was dissected and the duodenum and jejunum samples were placed separately in test tubes containing 1 ml assay buffer. The dissected frontal cortex and brain stem samples were placed in different test tubes containing 0.5 ml assay buffer. Each sample was homogenized using a tissue tearor (Biospec) set at level 5 for 15sec. The homogenates were then centrifuged at 17,000×g for 15 min at 4° C. The supernatants were obtained and saved at −80° C. until used for the EIA detection of SP. Samples were analyzed for SP using the “Correlate-EIA” kit from Assay Designs using a microplate reader.
(§1) The data on the frequency of emesis and scratchings were analyzed by the Kruskal-Wallis (KW) nonparametric one-way analysis of variance (ANOVA) and post hoc analysis by Dunn's multiple comparisons test or Mann-Whitney test. A P value of <0.05 was necessary to attain statistical significance. The incidence of emesis (number of shrews vomiting) was analyzed by the Fisher's exact test to determine whether there were differences between groups. When appropriate, pairwise comparisons were also made by this method. Two-way analysis of variance using the Kruskal-Wallis or Fisher's exact tests were initially utilized to respectively analyze the dose-response results of GR73632 on emesis and scratching behaviors, and percentage of shrews vomiting in saporin- and corresponding saline-pretreated control shrews. […] For some emesis data, the two-tailed Mann-Whitney test was used. The SP tissue concentration data were analyzed by a one-way ANOVA followed by Dunnett's t test as post hoc analysis. Fos-IR was quantified by counting immunopositive nuclei within each hemisection containing the region of interest (ROI). The number of nuclei was averaged across sections with the ROI for each animal, and the group mean and standard error obtained.

[2] = tested on: Least Shrew; test: Dose response emesis and scratching studies with tachykinin receptor agonists; type: in vivo, Cryptotis parva; conditions: for increase in the frequency of vomiting vs vehicle control: 30 min observation
Description: The present protocols were based upon preliminary studies as well as published findings in the Least Shrew. Darmani, 2001a; Darmani et al., 69 Pharmacol. Biochem. Behay. 239-49 (2001b). On the test day, the shrews were allowed to acclimate to the test laboratory for at least one hour prior to experimentation. To habituate the animals to the test environment, each shrew was randomly selected and transferred to a 20 cm×18 cm×21 cm clean clear plastic cage and offered four mealworms (Tenebrio sp.) 30 min prior to experimentation. […]
as §1

## SP: tachykinin undecapeptide, nonselective NK1 receptor agonist, purchased from Sigma/RBI
[1]
  time for brain stem SP-tissue level to attain maximal levels: 15 min
[1]; 5 min
  decrease of basal frontal cortex SP concentration: 34%
[1]; 5 min post-injection
  increase of basal SP blood serum level: 3488 fold
  increase of brain stem SP over basal level: 156%
[1]; 15 min
  decrease of basal frontal cortex SP concentration: 68%
[1]; 15 min post-injection
  increase of brain stem SP over basal level: 287%
[1]; 30 min
  brain stem SP level: returned to basal tissue level
  decrease of basal frontal cortex SP concentration: 89%
[1]; by 10 min
  SP blood serum level: rapidly declined
[1]; within 5 min
  duodenal SP tissue level increase over basal levels: 1883%
  jejunal SP tissue level increase over basal level: 2133%
[2]; 10 mg/kg i.p.
  emetic activity: inactive
[2]; 25 mg/kg i.p.
  emetic activity: inactive
[2]; 50 mg/kg i.p.
  percentage of shrews vomiting: 82%
  increase in the frequency of vomiting vs vehicle control: 382%
[2]; 100 mg/kg i.p.
  percentage of shrews vomiting: 78%
  increase in the frequency of vomiting vs vehicle control: 322%
[2]; at the doses tested, 10-100 mg/kg i.p.
  other overt behavioral effect (e.g. scratching): no other overt behavioral effect
[2]; i.p. agonist injection
  onset of first emesis after injection: 1 to 2 min
